The target in this data set is T1, Rap1 (Naumovozyma castellii, UniProt Q96VU6 1-826).
T1 sequence: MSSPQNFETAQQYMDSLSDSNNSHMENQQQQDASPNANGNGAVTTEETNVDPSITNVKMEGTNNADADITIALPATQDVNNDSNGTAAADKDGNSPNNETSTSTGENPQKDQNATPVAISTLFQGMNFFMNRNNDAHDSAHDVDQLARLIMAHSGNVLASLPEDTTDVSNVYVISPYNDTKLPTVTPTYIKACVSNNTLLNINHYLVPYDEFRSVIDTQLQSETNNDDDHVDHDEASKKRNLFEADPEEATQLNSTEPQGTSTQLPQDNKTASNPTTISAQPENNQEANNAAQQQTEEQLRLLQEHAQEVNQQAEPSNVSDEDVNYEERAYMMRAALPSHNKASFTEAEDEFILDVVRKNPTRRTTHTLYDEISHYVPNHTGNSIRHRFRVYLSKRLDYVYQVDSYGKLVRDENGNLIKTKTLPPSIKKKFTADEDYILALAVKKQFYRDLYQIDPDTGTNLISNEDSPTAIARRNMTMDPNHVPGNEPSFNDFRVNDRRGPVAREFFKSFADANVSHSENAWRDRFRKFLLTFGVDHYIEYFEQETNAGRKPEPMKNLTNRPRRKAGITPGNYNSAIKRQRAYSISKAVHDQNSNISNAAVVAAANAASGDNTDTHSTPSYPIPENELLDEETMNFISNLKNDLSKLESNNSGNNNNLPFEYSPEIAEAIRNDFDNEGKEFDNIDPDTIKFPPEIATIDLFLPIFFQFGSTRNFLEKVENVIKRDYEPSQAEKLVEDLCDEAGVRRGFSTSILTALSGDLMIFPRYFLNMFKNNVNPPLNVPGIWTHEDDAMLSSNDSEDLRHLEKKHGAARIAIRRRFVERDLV
Kind of data set: EMSA; EMSA: 10 fmol probe, 1.5 ug competitor mix (E. coli DNA, salmon sperm DNA, yeast tRNA), 1x lambda-exonuclease buffer (67 mM glycine-KOH pH 9.4, 2.5 (unit not given) MgCl2, BSA 50 ug/ul as printed), 8% glycerol, 15 ul, 25 C 15 min; gel 6% in 1x TBE at 4 C. To be noted: protein: recombinant; tags: N-terminal 6xHis; label: 32P 3'-deoxy-ATP added to 3' end of C-strand; 3' overhang 9 nt; other end blunt.

B1: D17S9m (mixed)
DNA 1: GTCACACGTCACACTCTGGGACTCTCCGTGTCTGGGTGTC
DNA 2: ACACGGAGAGTCCCAGAGTGTGACGTGTGAC
modifications: 5'-phosphate on C-strand (DEPA substrate)
With B1, the binding result is on record as “no binding”.

(Values after PMC5562816, “Rap1 and Cdc13 have complementary roles in preventing exonucleolytic degradation of telomere 5′ ends”.)
